In publication PMC7826282 (Nucleic Acids Research, 2020):

T1: 3xFLAG-FL-NOPCHAP1 (human, UniProt Q8N5I9 1-185)
T1 sequence (looked up): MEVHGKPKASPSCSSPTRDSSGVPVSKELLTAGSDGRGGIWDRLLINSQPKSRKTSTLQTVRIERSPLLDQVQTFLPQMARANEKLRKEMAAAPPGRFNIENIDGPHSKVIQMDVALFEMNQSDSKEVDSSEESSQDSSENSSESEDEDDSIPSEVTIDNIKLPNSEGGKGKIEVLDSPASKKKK


Columns and labels:
3xFLAG-FL-NOPCHAP1 = biological target: T1, 3xFLAG-FL-NOPCHAP1; experiment: co-IP
3xFLAG-FL-RUVBL1 (WT) = 3xFLAG-FL-RUVBL1 (WT) (mouse, UniProt P60122 1-456); experiment: co-IP
3xFLAG-FL-RUVBL2 (WT) = 3xFLAG-FL-RUVBL2 (WT) (mouse, UniProt Q9WTM5 1-463); experiment: co-IP
RUVBL1/2 WT complex = RUVBL1/2 WT complex ( (human or mouse cDNA cloned), UniProt Q9Y265 1-456; Q9Y230 1-463); experiment: SPR
RUVBL1/2 WT complex, sequence (Q9Y265 whole entry, one chain of several): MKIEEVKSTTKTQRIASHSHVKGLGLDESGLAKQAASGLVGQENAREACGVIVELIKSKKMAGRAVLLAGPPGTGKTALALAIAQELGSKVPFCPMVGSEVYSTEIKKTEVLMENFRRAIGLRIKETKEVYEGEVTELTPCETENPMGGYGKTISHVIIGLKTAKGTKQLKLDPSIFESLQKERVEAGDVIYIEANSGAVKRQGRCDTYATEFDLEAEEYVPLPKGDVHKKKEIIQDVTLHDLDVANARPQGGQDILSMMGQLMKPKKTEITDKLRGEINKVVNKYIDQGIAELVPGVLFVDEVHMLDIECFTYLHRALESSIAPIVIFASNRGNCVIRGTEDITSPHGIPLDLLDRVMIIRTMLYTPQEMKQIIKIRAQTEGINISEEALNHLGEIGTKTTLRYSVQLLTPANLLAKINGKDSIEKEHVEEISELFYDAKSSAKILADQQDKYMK

3xFLAG-FL-RUVBL1 (WT), sequence (P60122 whole entry): as the sequence (Q9Y265 whole entry, one chain of several) above, with I291V counted along it

co-IP efficiency (3xFLAG-FL-NOPCHAP1) | fold over the control IP without antibody (3xFLAG-FL-NOPCHAP1) | co-IP efficiency (3xFLAG-FL-RUVBL1 (WT)) | co-IP efficiency (3xFLAG-FL-RUVBL2 (WT)) | Kd (RUVBL1/2 WT complex) | Binder
0.18% | 64 fold | < 0.1% | < 0.1% |  | RL-NOP58 (natural protein, human, UniProt Q9Y2X3 1-529, looked up) MLVLFETSVGYAIFKVLNEKKLQEVDSLWKEFETPEKANKIVKLKHFEKFQDTAEALAAFTALMEGKINKQLKKVLKKIVKEAHEPLAVADAKLGGVIKEKLNLSCIHSPVVNELMRGIRSQMDGLIPGVEPREMAAMCLGLAHSLSRYRLKFSADKVDTMIVQAISLLDDLDKELNNYIMRCREWYGWHFPELGKIISDNLTYCKCLQKVGDRKNYASAKLSELLPEEVEAEVKAAAEISMGTEVSEEDICNILHLCTQVIEISEYRTQLYEYLQNRMMAIAPNVTVMVGELVGARLIAHAGSLLNLAKHAASTVQILGAEKALFRALKSRRDTPKYGLIYHASLVGQTSPKHKGKISRMLAAKTVLAIRYDAFGEDSSSAMGVENRAKLEARLRTLEDRGIRKISGTGKALAKTEKYEHKSEVKTYDPSGDSTLPTCSKKRKIEQVDKEDEITEKKAKKAKIKVKVEEEEEEKVAEEEETSVKKKKKRGKKKHIKEEPLSEEEPCTSTAIASPEKKKKKKKKRENED
0.35% |  |  |  |  | RL-RUVBL2-E300Q (natural protein, mouse, UniProt Q9WTM5 1-463, looked up) MATVAATTKVPEIRDVTRIERIGAHSHIRGLGLDDALEPRQASQGMVGQLAARRAAGVVLEMIREGKIAGRAVLIAGQPGTGKTAIAMGMAQALGPDTPFTAIAGSEIFSLEMSKTEALTQAFRRSIGVRIKEETEIIEGEVVEIQIDRPATGTGSKVGKLTLKTTEMETIYDLGTKMIESLTKDKVQAGDVITIDKATGKISKLGRSFTRARDYDAMGSQTKFVQCPDGELQKRKEVVHTVSLHEIDVINSRTQGFLALFSGDTGEIKSEVREQINAKVAEWREEGKAEIIPGVLFIDQVHMLDIESFSFLNRALESDMAPVLIMATNRGITRIRGTSYQSPHGIPIDLLDRLLIVSTSPYSEKDTKQILRIRCEEEDVEMSEDAYTVLTRIGLETSLRYAIQLITAASLVCRKRKGTEVQVDDIKRVYSLFLDESRSTQYMKEYQDAFLFNELKGETMDTS
7.5% |  |  |  |  | RL-RUVBL2-K83M (natural protein, mouse, UniProt Q9WTM5 1-463, looked up) MATVAATTKVPEIRDVTRIERIGAHSHIRGLGLDDALEPRQASQGMVGQLAARRAAGVVLEMIREGKIAGRAVLIAGQPGTGMTAIAMGMAQALGPDTPFTAIAGSEIFSLEMSKTEALTQAFRRSIGVRIKEETEIIEGEVVEIQIDRPATGTGSKVGKLTLKTTEMETIYDLGTKMIESLTKDKVQAGDVITIDKATGKISKLGRSFTRARDYDAMGSQTKFVQCPDGELQKRKEVVHTVSLHEIDVINSRTQGFLALFSGDTGEIKSEVREQINAKVAEWREEGKAEIIPGVLFIDEVHMLDIESFSFLNRALESDMAPVLIMATNRGITRIRGTSYQSPHGIPIDLLDRLLIVSTSPYSEKDTKQILRIRCEEEDVEMSEDAYTVLTRIGLETSLRYAIQLITAASLVCRKRKGTEVQVDDIKRVYSLFLDESRSTQYMKEYQDAFLFNELKGETMDTS
 |  |  |  | 1.98 nM | Avi-NOPCHAP1-6xHis, biotinylated (natural protein, human, UniProt Q8N5I9 1-185, looked up, biotin (cellular biotinylation by BirA)) MEVHGKPKASPSCSSPTRDSSGVPVSKELLTAGSDGRGGIWDRLLINSQPKSRKTSTLQTVRIERSPLLDQVQTFLPQMARANEKLRKEMAAAPPGRFNIENIDGPHSKVIQMDVALFEMNQSDSKEVDSSEESSQDSSENSSESEDEDDSIPSEVTIDNIKLPNSEGGKGKIEVLDSPASKKKK
